Molecular target: T1, recombinant soluble human CD4 (human, UniProt P01730 26-396, limits assumed)
T1 construct: Soluble recombinant CD4 used for ELISA and SPR/BIAcore; also called rCD4; sCD4
Test: BIAcore; rCD4 coupled to chip, mAb flowed (avidity)
Protocol: The rate and equilibrium constants presented in Table 19 were determined with a BIAcore, using antigen (rCD4) coupled to the sensor chip and flowing mAb over. These constants were derived from at least three independent experiments using purified mAbs.

kon: 11000 M⁻¹ s⁻¹
B1: 6G5.1 (antibody, human IgG1, V domains shown)
VH: QVQLQQWGAGLLKPSETLSLTCAVYGGSFSGYYWSWIRQPPGKGLEWIGEINHSGSTNYNPSLKSRVTISVDTSKNQFSLKLSSVTAADTAVYYCARVINWFDPWGQGTLVTVSS
VL: DIQMTQSPSSVSASVGDRVTITCRASQDISSWLAWYQHKPGKAPKLLIYAASSLQSGVPSRFSGSGSGTDFTLTISSLQPEDFATYYCQQANSFPYTFGQGTKLEIK
notes: Human IgG1 kappa from a hybridoma of an HC2/KCo5 mouse; VH4-34/JH5, VkL19/Jk2; also called GGS
